{
  "source": "paper PMC12499436",
  "about": "“Human Schlafen 14 Cleavage of Short Double‐Stranded RNAs Underpins its Antiviral Activity” (Advanced Science, 2025)",
  "binders": {"B1": {"name": "human SLFN14, wild type (strep-strep-SUMO tagged) (enzyme, UniProt P0C7P3 1-912, looked up)", "chain": "MESLKTDTEMPYPEVIVDVGRVIFGEENRKKMTNSCLKRSENSRIIRAICALLNSGGGVIKAEIDDKTYSYQCHGLGQDLETSFQKLLPSGSQKYLDYMQQGHNLLIFVKSWSPDVFSLPLRICSLRSNLYRRDVTSAINLSASSALELLREKGFRAQRGRPRVKKLHPQQVLNRCIQEEEDMRILASEFFKKDKLMYKEKLNFTESTHVEFKRFTTKKVIPRIKEMLPHYVSAFANTQGGYVLIGVDDKSKEVVGCKWEKVNPDLLKKEIENCIEKLPTFHFCCEKPKVNFTTKILNVYQKDVLDGYVCVIQVEPFCCVVFAEAPDSWIMKDNSVTRLTAEQWVVMMLDTQSAPPSLVTDYNSCLISSASSARKSPGYPIKVHKFKEALQRHLFPVTQEEVQFKPESLCKKLFSDHKELEGLMKTLIHPCSQGIVIFSRSWAGDVGFRKEQNVLCDALLIAVNSPVVLYTILIDPNWPGGLEYARNTAHQLKQKLQTVGGYTGKVCIIPRLIHLSSTQSRPGEIPLRYPRSYRLADEEEMEDLLQALVVVSLSSRSLLSDQMGCEFFNLLIMEQSQLLSESLQKTRELFIYCFPGVRKTALAIKIMEKIKDLFHCKPKEILYVCESDSLKDFVTQQTTCQAVTRKTFMQGEFLKIKHIVMDETENFCSKYGNWYMKAKNITHPKAKGTGSENLHHGILWLFLDPFQIHHADVNGLPPPSAQFPRKTITSGIHCALEIAKVMKEEMKRIKENPPSNMSPDTLALFSETAYEEATCAQALPGVCETKTNLTTEQIANYVARKCHSLFQCGYLPKDIAILCRRGEDRGRYRLALLKAMELIETHRPSEVVFSPATGVWGSHIVLDSIQQFSGLERTVVFGLSPECDQSEEFHKLCFASRAIKHLYLLYEKRAAY", "notes": "human Schlafen 14 (SLFN14), Gene ID 342618, wild type, codon-optimised gene; also called WT-SLFN14; Schlafen 14; source: HEK293F, transiently transfected, purified (Strep-Tactin, SEC); not shown: strep-strep, N-terminal, kept; SUMO, N-terminal, kept"}, "B2": {"name": "SLFN14 E211A-C365S-C775S-C808S (SLFN14^mut) (enzyme, human, UniProt P0C7P3 1-912, looked up)", "chain": "MESLKTDTEMPYPEVIVDVGRVIFGEENRKKMTNSCLKRSENSRIIRAICALLNSGGGVIKAEIDDKTYSYQCHGLGQDLETSFQKLLPSGSQKYLDYMQQGHNLLIFVKSWSPDVFSLPLRICSLRSNLYRRDVTSAINLSASSALELLREKGFRAQRGRPRVKKLHPQQVLNRCIQEEEDMRILASEFFKKDKLMYKEKLNFTESTHVAFKRFTTKKVIPRIKEMLPHYVSAFANTQGGYVLIGVDDKSKEVVGCKWEKVNPDLLKKEIENCIEKLPTFHFCCEKPKVNFTTKILNVYQKDVLDGYVCVIQVEPFCCVVFAEAPDSWIMKDNSVTRLTAEQWVVMMLDTQSAPPSLVTDYNSSLISSASSARKSPGYPIKVHKFKEALQRHLFPVTQEEVQFKPESLCKKLFSDHKELEGLMKTLIHPCSQGIVIFSRSWAGDVGFRKEQNVLCDALLIAVNSPVVLYTILIDPNWPGGLEYARNTAHQLKQKLQTVGGYTGKVCIIPRLIHLSSTQSRPGEIPLRYPRSYRLADEEEMEDLLQALVVVSLSSRSLLSDQMGCEFFNLLIMEQSQLLSESLQKTRELFIYCFPGVRKTALAIKIMEKIKDLFHCKPKEILYVCESDSLKDFVTQQTTCQAVTRKTFMQGEFLKIKHIVMDETENFCSKYGNWYMKAKNITHPKAKGTGSENLHHGILWLFLDPFQIHHADVNGLPPPSAQFPRKTITSGIHCALEIAKVMKEEMKRIKENPPSNMSPDTLALFSETAYEEATSAQALPGVCETKTNLTTEQIANYVARKCHSLFQSGYLPKDIAILCRRGEDRGRYRLALLKAMELIETHRPSEVVFSPATGVWGSHIVLDSIQQFSGLERTVVFGLSPECDQSEEFHKLCFASRAIKHLYLLYEKRAAY", "notes": "human Schlafen 14 (SLFN14), Gene ID 342618, full length, with four mutations introduced for cryo-EM; No tag cleavage is described in the purification; also called apo SLFN14; SLFN14 apoenzyme; source: Sf21 (baculovirus, pFastBac1), purified (Ni-NTA, heparin, SEC)"}},
  "key": {"SLFN14 (WT)": {"biological_target": "T1, SLFN14 (WT) (Homo sapiens, UniProt P0C7P3 1-912)", "T1 sequence": "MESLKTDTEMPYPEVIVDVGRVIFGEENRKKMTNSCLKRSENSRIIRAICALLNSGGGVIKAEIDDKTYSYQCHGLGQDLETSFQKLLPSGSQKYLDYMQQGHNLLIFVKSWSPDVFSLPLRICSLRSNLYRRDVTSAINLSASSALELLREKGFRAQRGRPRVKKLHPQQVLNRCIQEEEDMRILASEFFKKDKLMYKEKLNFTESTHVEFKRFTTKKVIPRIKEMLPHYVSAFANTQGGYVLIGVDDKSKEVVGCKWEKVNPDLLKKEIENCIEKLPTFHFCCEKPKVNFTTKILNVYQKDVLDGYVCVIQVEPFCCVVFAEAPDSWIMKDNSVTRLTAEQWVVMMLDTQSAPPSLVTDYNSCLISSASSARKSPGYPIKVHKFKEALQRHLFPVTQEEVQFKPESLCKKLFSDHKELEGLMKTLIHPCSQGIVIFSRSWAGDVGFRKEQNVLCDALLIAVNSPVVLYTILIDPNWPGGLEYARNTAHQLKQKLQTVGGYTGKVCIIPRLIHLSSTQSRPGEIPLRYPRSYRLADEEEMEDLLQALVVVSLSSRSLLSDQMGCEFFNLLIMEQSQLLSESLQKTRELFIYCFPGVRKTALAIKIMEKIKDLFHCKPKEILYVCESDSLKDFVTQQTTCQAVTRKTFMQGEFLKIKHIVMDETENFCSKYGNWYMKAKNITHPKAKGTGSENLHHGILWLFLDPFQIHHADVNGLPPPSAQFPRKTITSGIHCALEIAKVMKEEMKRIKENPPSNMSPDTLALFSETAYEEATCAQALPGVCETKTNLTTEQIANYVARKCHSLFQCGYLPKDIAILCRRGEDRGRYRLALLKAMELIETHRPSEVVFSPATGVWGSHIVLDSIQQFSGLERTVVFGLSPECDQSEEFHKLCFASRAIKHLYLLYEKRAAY", "experiment": "BLI; steady state; kdis 1.3e-3 /s; BLI: PBS, 0.02% P20, 0.1% BSA, 25 C; EMSA: 25 mM HEPES pH 7.5, 50 mM NaCl, 8% glycerol, 2 mM MgCl2, 1 mM DTT, 4 C, 50 nM ssDNA; cryo-EM: RNA in 40 mM Tris-HCl pH 8.0, 20 mM KCl, 4 mM MgCl2, 2 mM DTT, protein:RNA 1:1.2, 4 C overnight", "details": "protein: recombinant; tags: Strep-Strep-SUMO (N-term); chain copies: 2"}, "SLFN11 (WT)": {"biological_target": "T2, SLFN11 (WT) (Homo sapiens, UniProt Q7Z7L1 1-901)", "T2 sequence": "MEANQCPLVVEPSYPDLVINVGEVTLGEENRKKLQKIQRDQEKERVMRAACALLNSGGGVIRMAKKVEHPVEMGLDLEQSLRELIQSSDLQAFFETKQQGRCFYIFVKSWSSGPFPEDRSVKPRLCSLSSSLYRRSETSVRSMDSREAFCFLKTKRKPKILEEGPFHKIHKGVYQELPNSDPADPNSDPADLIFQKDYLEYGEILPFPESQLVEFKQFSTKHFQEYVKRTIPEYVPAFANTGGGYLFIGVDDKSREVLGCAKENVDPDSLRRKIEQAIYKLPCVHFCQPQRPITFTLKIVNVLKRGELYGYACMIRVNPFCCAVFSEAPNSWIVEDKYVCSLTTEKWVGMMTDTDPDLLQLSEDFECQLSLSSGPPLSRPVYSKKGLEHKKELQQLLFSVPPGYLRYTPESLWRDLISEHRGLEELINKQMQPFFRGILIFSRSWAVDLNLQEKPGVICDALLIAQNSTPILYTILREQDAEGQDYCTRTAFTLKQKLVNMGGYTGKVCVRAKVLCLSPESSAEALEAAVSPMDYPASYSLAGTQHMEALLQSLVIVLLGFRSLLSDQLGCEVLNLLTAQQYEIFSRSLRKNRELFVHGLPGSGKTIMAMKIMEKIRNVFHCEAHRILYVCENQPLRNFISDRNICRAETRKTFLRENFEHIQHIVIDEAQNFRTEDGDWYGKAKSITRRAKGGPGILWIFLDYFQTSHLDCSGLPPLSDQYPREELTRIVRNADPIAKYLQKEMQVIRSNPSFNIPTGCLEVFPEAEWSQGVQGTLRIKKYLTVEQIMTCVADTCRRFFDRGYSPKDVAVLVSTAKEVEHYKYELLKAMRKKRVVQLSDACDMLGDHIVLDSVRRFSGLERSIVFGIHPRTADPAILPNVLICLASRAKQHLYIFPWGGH", "experiment": "BLI; steady state; kdis 4.8e-4 /s; BLI: PBS, 0.02% P20, 0.1% BSA, 25 C; EMSA: 25 mM HEPES pH 7.5, 50 mM NaCl, 8% glycerol, 2 mM MgCl2, 1 mM DTT, 4 C, 50 nM ssDNA; cryo-EM: RNA in 40 mM Tris-HCl pH 8.0, 20 mM KCl, 4 mM MgCl2, 2 mM DTT, protein:RNA 1:1.2, 4 C overnight", "details": "protein: recombinant; tags: Strep-II-SUMO (N-term); chain copies: 2"}, "[1]": {"biological_target": "the molecule itself", "experiment": "SEC; recombinant strep-strep-SUMO tagged SLFN14 in solution with 150 mM NaCl; gel-filtration standards"}, "[2]": {"biological_target": "the molecule itself", "experiment": "cryo-EM structure; apo SLFN14^mut, single-particle analysis, 2.84 Å"}, "SLFN14mut": {"biological_target": "T3, SLFN14mut (Homo sapiens, UniProt P0C7P3 1-912, E211A;C365S;C775S;C808S)", "T3 sequence": "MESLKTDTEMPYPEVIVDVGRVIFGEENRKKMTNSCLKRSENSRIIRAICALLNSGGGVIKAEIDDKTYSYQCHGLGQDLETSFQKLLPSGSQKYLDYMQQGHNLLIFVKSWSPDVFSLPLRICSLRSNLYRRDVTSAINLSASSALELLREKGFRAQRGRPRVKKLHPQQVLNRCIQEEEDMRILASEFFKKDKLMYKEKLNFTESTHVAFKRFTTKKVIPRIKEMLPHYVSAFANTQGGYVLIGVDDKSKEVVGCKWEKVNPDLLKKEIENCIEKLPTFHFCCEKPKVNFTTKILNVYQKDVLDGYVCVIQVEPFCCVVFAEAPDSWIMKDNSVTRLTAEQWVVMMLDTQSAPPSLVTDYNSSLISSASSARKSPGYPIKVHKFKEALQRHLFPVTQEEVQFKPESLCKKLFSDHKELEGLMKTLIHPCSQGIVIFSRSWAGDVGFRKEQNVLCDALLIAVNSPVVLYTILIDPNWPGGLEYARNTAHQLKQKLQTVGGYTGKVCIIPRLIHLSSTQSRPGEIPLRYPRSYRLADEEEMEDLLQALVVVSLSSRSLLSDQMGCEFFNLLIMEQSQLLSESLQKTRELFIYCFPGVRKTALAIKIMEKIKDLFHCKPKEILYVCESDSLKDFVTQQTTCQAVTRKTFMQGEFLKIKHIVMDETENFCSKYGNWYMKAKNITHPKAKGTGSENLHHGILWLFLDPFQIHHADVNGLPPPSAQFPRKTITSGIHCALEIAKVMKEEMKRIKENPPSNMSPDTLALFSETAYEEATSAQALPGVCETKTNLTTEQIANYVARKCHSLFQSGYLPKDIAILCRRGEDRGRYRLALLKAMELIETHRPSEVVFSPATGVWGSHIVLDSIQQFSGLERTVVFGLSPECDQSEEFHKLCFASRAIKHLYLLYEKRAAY", "experiment": "cryo-EM structure; 2.88 A; Zn2+ (2 per dimer); no active-site ion density; BLI: PBS, 0.02% P20, 0.1% BSA, 25 C; EMSA: 25 mM HEPES pH 7.5, 50 mM NaCl, 8% glycerol, 2 mM MgCl2, 1 mM DTT, 4 C, 50 nM ssDNA; cryo-EM: RNA in 40 mM Tris-HCl pH 8.0, 20 mM KCl, 4 mM MgCl2, 2 mM DTT, protein:RNA 1:1.2, 4 C overnight", "details": "protein: recombinant; tags: 6xHis-SUMO (N-term); chain copies: 2; hairpin, 12-bp stem, 7-nt loop"}},
  "data": [
    {"binder": "AATTGGTCGTAGCAAGCTCTAGCACCGCTTAAACGCACGTACGCGCTGTC (ssDNA)", "note": "[50-nt ssDNA (BLI)]", "values": [
      {"measurement": "Kd", "setting": "SLFN14 (WT)", "result": 9, "unit": "nM"},
      {"measurement": "Kd", "setting": "SLFN11 (WT)", "result": 37, "unit": "nM"}
    ]},
    {"binder": "B1", "values": [
      {"measurement": "stoichiometry N", "setting": "[1]", "result": 2}
    ]},
    {"binder": "B2", "values": [
      {"measurement": "binding result", "setting": "[2]", "result": "binds"}
    ]},
    {"binder": "GCAUCAGCUACCUAAAGUUCAGGUAGCUGAUG (structured_RNA)", "note": "[short hairpin RNA (hRNA)]", "values": [
      {"measurement": "binding result", "setting": "SLFN14mut", "result": "binds"}
    ]}
  ]
}
